Assay results as given in IntAct's records for PubMed 23213219.

B1: UL37 immediate early glycoprotein (Human cytomegalovirus (strain AD169) (HHV-5)), P16778 (parent)
chain: MSPVYVNLLGSVGLLAFWYFSYRWIQRKRLEDPLPPWLRKKKACALTRRSRHRLRRQHGVIDGENSETERSVDLVAALLAEAGEESVTEDTEREDTEEEREDEEEENEARTPEVNPIDAEGLSGLAREACEALKKALRRHRFLWQRRQRARMLQHNGPQQSHHAAVFCRVHGLRGFQVSVWLLLTLLWSTGHGVSVRCTYHGTDVNRTSNTTSMNCHLNCTRNHTQIYNGPCLGTEARLPLNVTFNQSRRKWHSVMLKFGFQYHLEGWFPLRVLNESREINVTEVHGEVACFRNDTNVTVGQLTLNFTGHSYVLRAIAHTSPFESYVRWEETNVTDNATSSENTTTVMSTLTKYAESDYIFLQDMCPRFLKRTVKLTRNKTKHNVTVTGNNMTTLPVWTPECKGWTYWTTLSVMWRNRRSALLRAKSRALGHWALLSICTVAAGSIALLSLFCILLIGLRRDLLEDFRYICRDEGSSSTKNDVHRIV

Variants of: B1
Settings: with bax_human BAX

For MSPVYVNLLGSVGLLAFWYFSYRWIQRKRLEDPLPPWLRKKKACALTRRSRHRLRRQHGVIDGENSETERSVDLVAALLAEAGEESVTEDTEREDTEEEREDEEEENEARTPEVNPIDAEGLSGLAREACEALKKALREHRFLWQRRQRARMLQHNGPQQSHHAAVFCRVHGLRGFQVSVWLLLTLLWSTGHGVSVRCTYHGTDVNRTSNTTSMNCHLNCTRNHTQIYNGPCLGTEARLPLNVTFNQSRRKWHSVMLKFGFQYHLEGWFPLRVLNESREINVTEVHGEVACFRNDTNVTVGQLTLNFTGHSYVLRAIAHTSPFESYVRWEETNVTDNATSSENTTTVMSTLTKYAESDYIFLQDMCPRFLKRTVKLTRNKTKHNVTVTGNNMTTLPVWTPECKGWTYWTTLSVMWRNRRSALLRAKSRALGHWALLSICTVAAGSIALLSLFCILLIGLRRDLLEDFRYICRDEGSSSTKNDVHRIV [R139E], which “effect of a mutation on the interaction” value is on record?
The value was “decreasing interaction strength”.

With MSPVYVNLLGSVGLLAFWYFSYRWIQRKRLEDPLPPWLRKKKACALTRRSRHRLRRQHGVIDGENSETERSVDLVAALLAEAGEESVTEDTEREDTEEEREDEEEENEARTPEVNPIDAEGLSGLAREACEALKKALRRHRFAWQRRQRARMLQHNGPQQSHHAAVFCRVHGLRGFQVSVWLLLTLLWSTGHGVSVRCTYHGTDVNRTSNTTSMNCHLNCTRNHTQIYNGPCLGTEARLPLNVTFNQSRRKWHSVMLKFGFQYHLEGWFPLRVLNESREINVTEVHGEVACFRNDTNVTVGQLTLNFTGHSYVLRAIAHTSPFESYVRWEETNVTDNATSSENTTTVMSTLTKYAESDYIFLQDMCPRFLKRTVKLTRNKTKHNVTVTGNNMTTLPVWTPECKGWTYWTTLSVMWRNRRSALLRAKSRALGHWALLSICTVAAGSIALLSLFCILLIGLRRDLLEDFRYICRDEGSSSTKNDVHRIV [L143A] as the variant, how does the “effect of a mutation on the interaction” value read?
The value was “decreasing interaction strength”.

Which “effect of a mutation on the interaction” value does the source give for MSPVYVNLLGSVGLLAFWYFSYRWIQRKRLEDPLPPWLRKKKACALTRRSRHRLRRQHGVIDGENSETERSVDLVAALLAEAGEESVTEDTEREDTEEEREDEEEENEARTPEVNPIDAEGLSGLAREACEALKKALRRHRFLWQERQRARMLQHNGPQQSHHAAVFCRVHGLRGFQVSVWLLLTLLWSTGHGVSVRCTYHGTDVNRTSNTTSMNCHLNCTRNHTQIYNGPCLGTEARLPLNVTFNQSRRKWHSVMLKFGFQYHLEGWFPLRVLNESREINVTEVHGEVACFRNDTNVTVGQLTLNFTGHSYVLRAIAHTSPFESYVRWEETNVTDNATSSENTTTVMSTLTKYAESDYIFLQDMCPRFLKRTVKLTRNKTKHNVTVTGNNMTTLPVWTPECKGWTYWTTLSVMWRNRRSALLRAKSRALGHWALLSICTVAAGSIALLSLFCILLIGLRRDLLEDFRYICRDEGSSSTKNDVHRIV [R146E] here?
The value was “decreasing interaction strength”.
